Source: patent publication US20170267778A1 (ADC THERPEUTICS S A, published 2017)

molecular target: T1, Tn-MUC1 on ZR-75-1 cells (human, UniProt P15941 24-1255, Tn glycoform (GalNAcα1-O-Ser/Thr) as expressed by the cells); assay: flow cytometry on ZR-75-1 cells (protocol 6)
T1 construct: whole, on cells; also called ZR-75-1 cell line, which expresses Tn-MUC1; Tn-MUC1(+ve) cell line ZR75-1
Procedure: Exponentially growing cells are suspended by incubation with cell dissociation buffer enzyme-free, Hanks-based (Gibco 13150-016) following the manufacturer's instructions. A cell count/viability is done on a dilution of 10 ul cells+Trypan Blue, 10 ul, with a haemocytomer. The suspension is centrifuged and the cell pellet re-suspended in binding buffer at 3×10̂6 per ml. If significant levels of aggregates are present in the cell count, the suspension is filtered to remove aggregates. The cell suspension is dispensed (50 ul/well) in 96 well U-bottom plates and cooled on ice for 10 minutes. Primary antibody (50 ul/well) diluted in binding buffer (typically 1 ug per ml or less) is added to each well and incubated at 4° C. for 1 hour. The microplate is centrifuged 5 min at 300-400 g at 4° C., flicked to remove the supernatant and then the cell pellet re-suspended in 200 uL of wash buffer (PBS, 0.1% sodium azide). Centrifugation and re-suspension are done 4 times in all. After the last centrifugation, cells are re-suspended in 50 uL of binding buffer containing the biotin labelled conjugate 1:250 (kept at −20 C: Biotin-SP-AffiniPure F(ab′)2 Fragment Goat antihuman IgG (H+L); Jackson 109-066-088). Cells are incubated for 1 hour at 4 C, then washed 4 times as before. Cells are resuspended in 50 ul of binding buffer containing Streptavidin, Alexa Fluor® 488 conjugate (Life Technologies s11223) diluted 1:250 and Fixable Viability Dye eFluor@780 (eBioscience 65-0865) diluted 1:2000, The cells are incubated at 4° C. for 1 hour and then washed 3 times, as above. Cells are then re-suspended in PBS if reading immediately or fixed in 100 ul of paraformaldehyde (2% (w/v) in PBS) and analysed with by flow cytometer (Accuri C6), gating on live cells which have a lower Fixable Viability Dye MFI compared to dead cells.
IgG binding potency to Tn-MUC1 was measured as per protocol 4 and binding to the ZR-75-1 cell line, which expresses Tn-MUC1, was measured as per protocol 6.

T1 sequence (P15941 24-1255): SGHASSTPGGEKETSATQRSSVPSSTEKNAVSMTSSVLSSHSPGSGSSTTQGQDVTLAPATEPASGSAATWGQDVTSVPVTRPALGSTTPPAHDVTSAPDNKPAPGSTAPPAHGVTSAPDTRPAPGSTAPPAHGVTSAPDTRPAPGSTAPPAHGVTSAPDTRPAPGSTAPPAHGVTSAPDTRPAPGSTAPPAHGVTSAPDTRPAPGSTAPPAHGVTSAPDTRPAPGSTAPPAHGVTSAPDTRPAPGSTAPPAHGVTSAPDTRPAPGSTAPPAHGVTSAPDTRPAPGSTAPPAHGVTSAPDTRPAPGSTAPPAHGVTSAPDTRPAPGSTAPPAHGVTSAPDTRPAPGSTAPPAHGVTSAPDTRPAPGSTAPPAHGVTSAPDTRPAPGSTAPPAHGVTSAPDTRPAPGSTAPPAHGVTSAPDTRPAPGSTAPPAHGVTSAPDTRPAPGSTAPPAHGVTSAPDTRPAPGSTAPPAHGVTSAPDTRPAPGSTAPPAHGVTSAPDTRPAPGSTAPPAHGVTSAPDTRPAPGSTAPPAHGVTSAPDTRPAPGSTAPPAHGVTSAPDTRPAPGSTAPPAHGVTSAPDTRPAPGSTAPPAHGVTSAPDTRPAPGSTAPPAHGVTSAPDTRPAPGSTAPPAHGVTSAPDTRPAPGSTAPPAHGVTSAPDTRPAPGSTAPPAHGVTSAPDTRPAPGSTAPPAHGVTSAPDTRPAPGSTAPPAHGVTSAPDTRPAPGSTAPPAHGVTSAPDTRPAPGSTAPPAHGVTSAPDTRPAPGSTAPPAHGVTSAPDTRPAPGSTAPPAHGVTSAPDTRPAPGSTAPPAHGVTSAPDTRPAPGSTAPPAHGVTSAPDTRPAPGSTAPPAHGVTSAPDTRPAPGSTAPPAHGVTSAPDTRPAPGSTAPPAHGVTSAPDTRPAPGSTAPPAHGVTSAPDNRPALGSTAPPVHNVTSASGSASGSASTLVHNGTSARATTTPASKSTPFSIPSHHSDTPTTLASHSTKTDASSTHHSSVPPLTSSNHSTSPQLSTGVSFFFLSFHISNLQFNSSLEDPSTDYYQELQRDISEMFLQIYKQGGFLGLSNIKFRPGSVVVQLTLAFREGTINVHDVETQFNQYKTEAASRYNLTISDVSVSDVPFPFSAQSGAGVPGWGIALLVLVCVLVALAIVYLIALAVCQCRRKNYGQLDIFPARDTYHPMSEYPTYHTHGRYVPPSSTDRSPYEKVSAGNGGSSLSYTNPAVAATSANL

Binder	EC50
Ab4 (antibody, human IgG1, V domains shown, Expressed as human IgG1/kappa from pFUSE-CHIg-hG1 and pFUSE2-CLIg-hk vectors; also called 5E5RHA8 / 5E5RKB) VH: QVQLVQSGAEVKKTGSSVKVSCKASGYTFTDHAIHWVRQAPGQALEWMGHFSPGNTDIKYNDKFKGRVTLTVDRSMSTAYMELSSLRSEDTAMYYCKTSTFFFDYWGQGTMVTVSS VL: DIVMTQSPLSLPVTPGEPASISCKSSQSLLNSGDQKNYLTWYLQKPGQSPQLLIYWASTRESGVPDRFSGSGSGTDFTLKISRVEAEDVGVYYCQNDYSYPLTFGGGTKVEIK	0.0423 µg/mL
Ab5 (antibody, human IgG1, V domains shown, Expressed as human IgG1/kappa from pFUSE-CHIg-hG1 and pFUSE2-CLIg-hk vectors; also called 5E5RHB10 / 5E5RKB) VH: EVQLVQSGAEVKKPGESLKISCKISGYIFTDHAIHWVRQMPGKGLEWMGHFSPGNTDIKYNDKFKGQVTLSVDRSINTAYLQWSSLKASDTAIYFCKTSTFFFDYWGQGTRVTVSS VL: DIVMTQSPLSLPVTPGEPASISCKSSQSLLNSGDQKNYLTWYLQKPGQSPQLLIYWASTRESGVPDRFSGSGSGTDFTLKISRVEAEDVGVYYCQNDYSYPLTFGGGTKVEIK	0.0184 µg/mL
Ab6 (antibody, human IgG1, V domains shown, Expressed as human IgG1/kappa from pFUSE-CHIg-hG1 and pFUSE2-CLIg-hk vectors; also called 5E5RHC9 / 5E5RKB) VH: EVQLVESGAEVKKPGASVEVSCQASGYTFTDHAIHWVRQAPGQGLEWMGHFSPGNTDIKYNDKFKGRVTMTVDRSINTAYMELRRLRSDDTAVYYCKTSTFFFDYWGQGTMVTVSS VL: DIVMTQSPLSLPVTPGEPASISCKSSQSLLNSGDQKNYLTWYLQKPGQSPQLLIYWASTRESGVPDRFSGSGSGTDFTLKISRVEAEDVGVYYCQNDYSYPLTFGGGTKVEIK	0.0413 µg/mL
Ab1 (antibody, V domains shown, Expressed as human IgG1/kappa from pFUSE-CHIg-hG1 and pFUSE2-CLIg-hk vectors; also called 5E5RHA8 / 5E5RKA) VH: QVQLVQSGAEVKKTGSSVKVSCKASGYTFTDHAIHWVRQAPGQALEWMGHFSPGNTDIKYNDKFKGRVTLTVDRSMSTAYMELSSLRSEDTAMYYCKTSTFFFDYWGQGTMVTVSS VL: DIVMTQSPDSLAVSLGERATINCKSSQSLLNSGDQKNYLTWYQQKPGQPPKLLIYWASTRESGVPDRFSGSGSGTDFTLTISSLQAEDVAVYYCQNDYSYPLTFGQGTKVEIK	0.00986 µg/mL
Mouse 5E5 (antibody, V domains shown, V regions were subcloned into pFUSE-CHIg-hG1 (human IgG1) and pFUSE2-CLIg-hk (human kappa) vectors and expressed in HEK293 cells; also called mouse 5E5 antibody; 5E5VH/5E5VK) VH: QVQLQQSDAELVKPGSSVKISCKASGYTFTDHAIHWVKQKPEQGLEWIGHFSPGNTDIKYNDKFKGKATLTVDRSSSTAYMQLNSLTSEDSAVYFCKTSTFFFDYWGQGTTLTVSS VL: DIVMTQSPSSLTVTAGEKVTMICKSSQSLLNSGDQKNYLTWYQQKPGQPPKLLIFWASTRESGVPDRFTGSGSGTDFTLTISSVQAEDLAVYYCQNDYSYPLTFGAGTKLELK	0.0283 µg/mL
Ab2 (antibody, V domains shown, Expressed as human IgG1/kappa from pFUSE-CHIg-hG1 and pFUSE2-CLIg-hk vectors; also called 5E5RHB10 / 5E5RKA) VH: EVQLVQSGAEVKKPGESLKISCKISGYIFTDHAIHWVRQMPGKGLEWMGHFSPGNTDIKYNDKFKGQVTLSVDRSINTAYLQWSSLKASDTAIYFCKTSTFFFDYWGQGTRVTVSS VL: DIVMTQSPDSLAVSLGERATINCKSSQSLLNSGDQKNYLTWYQQKPGQPPKLLIYWASTRESGVPDRFSGSGSGTDFTLTISSLQAEDVAVYYCQNDYSYPLTFGQGTKVEIK	0.0168 µg/mL
Ab3 (antibody, V domains shown, Expressed as human IgG1/kappa from pFUSE-CHIg-hG1 and pFUSE2-CLIg-hk vectors; also called 5E5RHC9 / 5E5RKA) VH: EVQLVESGAEVKKPGASVEVSCQASGYTFTDHAIHWVRQAPGQGLEWMGHFSPGNTDIKYNDKFKGRVTMTVDRSINTAYMELRRLRSDDTAVYYCKTSTFFFDYWGQGTMVTVSS VL: DIVMTQSPDSLAVSLGERATINCKSSQSLLNSGDQKNYLTWYQQKPGQPPKLLIYWASTRESGVPDRFSGSGSGTDFTLTISSLQAEDVAVYYCQNDYSYPLTFGQGTKVEIK	0.0268 µg/mL
